Test results taken from patent publication US20140308285A1 (Amgen, published 2014).

B1: P69059.3 (bispecific antibody)
chain 1: SYELTQPPSVSVSPGQTARITCSGDALPKKYAYWYQQKSGQAPVLVIYEATKRPSGIPERFSGSSSGTMATLTLSGAQVEDEADYYCYSTDSTNYHWVFGGGTKLTVLGGGGGSGGGGSQVQLQESGPGLVKPSQTLSLTCTVSGGSINNNNYYWTWIRQHPGKGLEWIGYIYYSGSTFYNPSLKSRVTISVDTSKTQFSLKLSSVTAADTAVYYCAREDTMTGLDVWGQGTTVTVSSASTKGPSVFPLAPCSRSTSESTAALGCLVKDYFPEPVTVSWNSGALTSGVHTFPAVLQSSGLYSLSSVVTVPSSNFGTQTYTCNVDHKPSNTKVDKTVGGGGSAAAVPRDLEVVAATPTSLLISWDAPHHGVAYYRITYGETGGNSPVQEFTVPGSKSTATISGLKPGVDYTINVYAVLAYPRGYPLSKPISINYRTDYKDDDDKGSSHHHHHH
chain 2: DIQMTQSPSSLSASVGDRVTITCRASQSINNYLNWYQQKPGKAPTLLIYAASSLQSGVPSRFSGSRSGTDFTLTISSLQPEDFAAYFCQQTYSNPTFGQGTKVEVKGGGGSGGGGSEVQLVESGGGLVKPGVSLRLSCAASGFTFSRYSMNWVRQAPGKGLEWVSSISSSGTYIKYADSVKGRFTISRDNAKNSLNLQMNSLRAEDTAVYYCARDRDRYPLDYWGQGTLVTVSSRTVAAPSVFIFPPSDEQLKSGTASVVCLLNNFYPREAKVQWKVDNALQSGNSQESVTEQDSKDSTYSLSSTLTLSKADYEKHKVYACEVTHQGLSSPVTKSFNRGEC
B2: H71362.2 (bispecific antibody)
chain 1: EVQLVESGGGLVKPGVSLRLSCAASGFTFSRYGMNWVRQAPGKGLEWVSSISSSGTYIKYADSVKGRFTISRDNAKNSLNLQMNSLRAEDTAVYYCARDRDRYPLDYWGQGTLVTVSSASTKGPQVQLQESGPGLVKPSETLSLTCTVSGGSIISHYWSWIRQPPGKGLEWIGYIYYSGSTNYNPSLKSRVTISVDTSKNQFSLKLTSVTAADTAVYYCARDGWSAFDYWGQGTLVTVSSASTKGPSVFPLAPCSRSTSESTAALGCLVKDYFPEPVTVSWNSGALTSGVHTFPAVLQSSGLYSLSSVVTVPSSNFGTQTYTCNVDHKPSNTKVDKTVGGGGSAAAVPRDLEVVAATPTSLLISWDAIGLYPYYYRITYGETGGNSPVQEFTVPGSKSTATISGLKPGVDYTITVYAVSGIFGWNNSKPISINYRTGSSDYKDDDDKGSSHHHHHH
chain 2: SYELTQPPSVSVSPGQTARITCSGDALPKKYAYWYQQKSGQAPVLVIYEATKRPSGIPERFSGSSSGTMATLTLSGAQVEDEADYYCYSTDSTNYHWVFGGGTKLTVLGTVAAPDIQMTQSPSSLSASVGDRVTITCRASQGIRNALGWYQQKPGKAPKRLIYAASSLQSGVPSRFSGSGSGTEFTLTISSLQPEDFATYYCLQHNSYPRTFGQGTKVEIRRTVAAPSVFIFPPSDEQLKSGTASVVCLLNNFYPREAKVQWKVDNALQSGNSQESVTEQDSKDSTYSLSSTLTLSKADYEKHKVYACEVTHQGLSSPVTKSFNRGEC
B3: P136795.3 (bispecific antibody)
chain 1: EVQLVESGGGLVQPGGSLKLSCAASGFTFNSYAMNWVRQAPGKGLEWVARIRSKYNNYATYYADSVKGRFTISRDDSKNTAYLQMNNLKTEDTAVYYCVRHGNFGNSYVSWWAYWGQGTLVTVSSGGGGSGGGGSQSVLTQPPSVSEAPRQRVTISCSGSSSNIGNNAVNWYQQLPGKAPKLLIYYDDMLSSGVSDRFSGSKSGTSASLAISGLQSEDEADYYCAAWDDSLNGVVFGGGTKLTVLASTKGPSVFPLAPCSRSTSESTAALGCLVKDYFPEPVTVSWNSGALTSGVHTFPAVLQSSGLYSLSSVVTVPSSNFGTQTYTCNVDHKPSNTKVDKTVGGGGSAAAEPKSSDKTHTCPPCPAPEAAGGPSVFLFPPKPKDTLMISRTPEVTCVVVDVSHEDPEVKFNWYVDGVEVHNAKTKPREEQYNSTYRVVSVLTVLHQDWLNGKEYKCKVSNKALPAPIEKTISKAKGQPREPQVYTLPPSREEMTKNQVSLTCLVKGFYPSDIAVEWESNGQPENNYDTTPPVLDSDGSFFLYSDLTVDKSRWQQGNVFSCSVMHEALHNHYTQKSLSLSPGK
chain 2: not shown

Tests used:
[1] = biological target: T1, human CD3 (CD3 epsilon chain) on human T cells (human, UniProt P07766 22-207); assay: FACS on isolated human T cells, FITC anti-human light chain secondary antibody
T1 construct: The assay used isolated human T cells, which carry CD3 as part of the TCR-CD3 complex; also called CD3ε
Protocol: The heterodimeric bispecific antibodies described in Example 1 were produced in HEK 293 cells and were assayed by fluorescence activated cell sorting (FACS) for binding to T cells, which express CD3, and to a human ovarian cancer cell line, Ovcar-8, which expresses mesothelin. Briefly, the heterodimeric bispecific antibodies were incubated with about 50,000 Ovcar-8 cells or isolated human or cynomolgus monkey T cells at 4° C. for one hour. The cells were then washed and stained with a fluorescein isothiocyanate (FITC)-conjugated anti-human light chain secondary antibody and analyzed by flow cytometry. The relative binding was represented by the geometric mean of fluorescence intensity.

[2] = biological target: T2, folate receptor 1 (FOLR1) on tumor cell lines (Cal-51, T47D) (human, UniProt P15328 25-234); assay: cell-based or functional assay
[3] = biological target: T2, folate receptor 1 (FOLR1) on tumor cell …; assay: cell-based or functional assay; remark: listed apart in the source

T2 sequence (P15328 25-234, stated change not applied): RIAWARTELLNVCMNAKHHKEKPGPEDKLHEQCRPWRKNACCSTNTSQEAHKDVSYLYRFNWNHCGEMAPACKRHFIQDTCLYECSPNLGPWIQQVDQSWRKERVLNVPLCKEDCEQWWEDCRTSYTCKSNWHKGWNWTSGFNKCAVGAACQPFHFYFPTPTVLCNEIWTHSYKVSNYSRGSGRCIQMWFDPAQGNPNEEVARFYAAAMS
T1 sequence (P07766 22-207 limits assumed): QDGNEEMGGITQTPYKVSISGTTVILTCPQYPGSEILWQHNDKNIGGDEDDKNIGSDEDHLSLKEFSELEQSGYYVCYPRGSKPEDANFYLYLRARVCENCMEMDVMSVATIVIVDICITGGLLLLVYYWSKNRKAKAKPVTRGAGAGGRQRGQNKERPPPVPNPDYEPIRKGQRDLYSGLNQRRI

Binder	FACS binding (geometric mean) [1]	EC50 of specific lysis, Cal-51 cells (printed Cal-61) with human T cells [2] [pM]	EC50 of specific lysis, T47D cells with human T cells [2] [pM]	EC50 (pM) for cytokine release, IFN-γ, in presence of T47D cells [3] [pM]	EC50 (pM) for cytokine release, IL-2, in presence of T47D cells [3] [pM]	EC50 (pM) for cytokine release, IL-10, in presence of T47D cells [3] [pM]	EC50 (pM) for cytokine release, IL-13, in presence of T47D cells [3] [pM]	EC50 (pM) for cytokine release, TNF-α, in presence of T47D cells [3] [pM]
B1	179							
B2	354							
B3		1.21	1.26	27.1	20.3	28.3	27.8	12.5
